This note sets out measurements from IntAct's records for PubMed 19737520.

Sequences and labels used below:
B1: Trigger factor (Thermotoga maritima (strain ATCC 43589 / MSB8 / DSM 3109 / JCM 10099)), Q9WZF8 (parent)
chain: MEVKELERDKNRVVLEYVFGAEEIAQAEDKAVRYLNQRVEIPGFRKGRIPKNVLKMKLGEEFQEYTLDFLMDLIPDTLKDRKLILSPIVTERELKDVTARVVVEVHEEPEVRIGDISKIEVEKVDEEKVLEKYVERRIEDLRESHALLEPKEGPAEAGDLVRVNMEVYNEEGKKLTSREYEYVISEDEDRPFVKDLVGKKKGDVVEIEREYEGKKYTYKLEVEEVYKRTLPEIGDELAKSVNNEFETLEQLKESLKKEGKEIYDVEMKESMREQLLEKLPEIVEIEISDRTLEILVNEAINRLKREGRYEQIVSSYESEEKFREELKERILDDIKRDRVIEVLAQEKGISVNDEELEKEAEELAPFWGISPDRAKSLVKARQDLREELRWAILKRKVLDLLLQEVKVKVVEPKGEGDDSEGKEDN
partner: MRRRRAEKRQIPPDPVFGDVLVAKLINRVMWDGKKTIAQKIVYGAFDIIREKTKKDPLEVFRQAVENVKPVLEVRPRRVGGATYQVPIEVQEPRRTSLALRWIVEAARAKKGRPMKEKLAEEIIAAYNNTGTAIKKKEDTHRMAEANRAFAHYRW

The variants in this test derive from B1. The following applies: with rs7_thema rpsG.
Turning to E266R;E269R;E273R, the “effect of a mutation on the interaction” value is on record as “disrupting interaction”.
